In PMC7797058, “Characterization of the first tetrameric transcription factor of the GntR superfamily with allosteric regulation from the bacterial pathogen Agrobacterium fabrum” (Nucleic Acids Research, 2020):

Assays:
Atu1419 [1] = molecular target: T1, Atu1419 (Agrobacterium fabrum, UniProt A9CJ36); test: isothermal titration calorimetry; type: binding
T1 construct: theoretical monomer mass ~26542 Da; homotetramer; co-purified Zn2+
T1 sequence (A9CJ36 1-244): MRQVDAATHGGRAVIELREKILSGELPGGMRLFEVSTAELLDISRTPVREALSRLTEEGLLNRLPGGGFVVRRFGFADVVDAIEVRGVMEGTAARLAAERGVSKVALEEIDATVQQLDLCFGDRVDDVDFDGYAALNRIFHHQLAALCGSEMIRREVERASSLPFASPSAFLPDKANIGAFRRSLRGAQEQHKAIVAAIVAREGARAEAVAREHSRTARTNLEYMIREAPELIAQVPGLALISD

Atu1419 [2] = molecular target: T1, Atu1419; test: differential scanning calorimetry; type: binding; conditions: 10 µM protein, 100 µM MEF, 1 K/min; absolute Tm with ligand, apo reference Tm 52.6 °C
[3] = molecular target: T2, Atu1419 (Agrobacterium fabrum C58) (UniProt A9CJ36); test: EMSA; conditions: EMSA: 50 mM Tris-HCl pH 8, 150 mM NaCl, 30 nM DNA, 30 min at room temperature; gel 6% or 12% PAGE in TBE at 4 C
T2 sequence: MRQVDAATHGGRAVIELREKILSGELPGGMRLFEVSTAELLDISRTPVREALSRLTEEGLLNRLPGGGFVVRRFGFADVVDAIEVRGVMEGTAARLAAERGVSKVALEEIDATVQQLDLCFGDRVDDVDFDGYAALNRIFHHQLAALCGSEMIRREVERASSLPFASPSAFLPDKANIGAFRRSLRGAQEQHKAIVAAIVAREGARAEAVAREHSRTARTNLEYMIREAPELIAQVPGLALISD

[4] = molecular target: the molecule itself; test: SEC + SEC-MALS; apo Atu1419 at 25 uM; Superdex 200 10/300 GL; 50 mM Tris pH 8, 150 mM NaCl
[5] = molecular target: the molecule itself; test: not stated; oligomeric state of purified Atu1419-H3A; method not given
Atu1419 [6] = molecular target: T3, Atu1419 (Agrobacterium fabrum C58, UniProt A9CJ36 1-244); test: X-ray crystallography; Zn2+, citrate (orientation B); EMSA: 50 mM Tris-HCl pH 8, 150 mM NaCl, 30 nM DNA, 30 min at room temperature; gel 6% or 12% PAGE in TBE at 4 C; conditions: protein: recombinant; tags: C-terminal 6xHis; chain copies: 4; blunt; self-complementary, 2 strand copies
T3 sequence: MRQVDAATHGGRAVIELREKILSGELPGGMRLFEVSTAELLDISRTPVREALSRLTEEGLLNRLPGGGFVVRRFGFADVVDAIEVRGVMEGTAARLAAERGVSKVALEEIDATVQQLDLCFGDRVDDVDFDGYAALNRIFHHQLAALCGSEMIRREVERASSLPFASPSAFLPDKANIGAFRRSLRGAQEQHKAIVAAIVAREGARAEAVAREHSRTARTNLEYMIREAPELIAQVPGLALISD

Nc1nc2c(c(=O)[nH]1)N1CN(c3ccc(C(=O)N[C@@H](CCC(=O)O)C(=O)O)cc3)C[C@H]1CN2 [MEF, N5,N10-methylenetetrahydrofolate]
Kd (Atu1419 [1]): ~20 µM
Tm (Atu1419 [2]): 63.5 °C

AAGCGCCTGAACTGATTGCGCAGGTTCCGGGTCTCGCACTCATCAGCGACTAAGCGGCGGAAATCGCTGCAAATCCAGGGGTGGCGCCTTTTGGCGCCGCCTTTATTTTTGTCGACACCCTCCCTGACGCGGTAATTTTGCGCTTGCAATTTATCAAAGCACAGCGTTTCATGTATACATAGATGCGATTGCCAGGGAGGAGATGACAATGGCAAATTCCAGTCTGACCGAGGTTTTGAAGCAATATCCGAACCCCGTTGAAATGCTC (double strand) [Patu1420]
binding [3]: binds

GGTGGGACTGGTCAAACAACACGGCACCCTCGCGCCATGCGGCCTGCTCGGAACGCCAGTTGCTGAACTCACCGGCGACAACCGGGTATACATACATTCCGATTTTTGAGTTGCGGAGCATTTCAACGGGGTTCGGATATTGCTTCAAAACCTCGGTCAGACTGGAATTTGCCATTGTCATCTCCTCCCT (double strand) [P2-atu1420]
binding [3]: binds

B1: Atu1419 transcriptional regulator (GntR superfamily, VanR group) of Agrobacterium fabrum (natural protein, UniProt A9CJ36 1-244, looked up)
chain: MRQVDAATHGGRAVIELREKILSGELPGGMRLFEVSTAELLDISRTPVREALSRLTEEGLLNRLPGGGFVVRRFGFADVVDAIEVRGVMEGTAARLAAERGVSKVALEEIDATVQQLDLCFGDRVDDVDFDGYAALNRIFHHQLAALCGSEMIRREVERASSLPFASPSAFLPDKANIGAFRRSLRGAQEQHKAIVAAIVAREGARAEAVAREHSRTARTNLEYMIREAPELIAQVPGLALISD
notes: Atu1419, GntR-type transcriptional repressor of the SpG8-1b region, Agrobacterium fabrum C58; theoretical molecular weight about 26 542 Da for a monomer; Co-purifies with one Zn2+ ion per subunit; also called apo Atu1419; wild-type Atu1419; source: E. coli BL21, pET-20b, purified (His-Trap HP, Superdex 200 gel filtration)
stoichiometry N [4]: 4

B2: Atu1419-H3A mutant (H192A, H141A and H214A) (natural protein)
chain: MRQVDAATHGGRAVIELREKILSGELPGGMRLFEVSTAELLDISRTPVREALSRLTEEGLLNRLPGGGFVVRRFGFADVVDAIEVRGVMEGTAARLAAERGVSKVALEEIDATVQQLDLCFGDRVDDVDFDGYAALNRIFAHQLAALCGSEMIRREVERASSLPFASPSAFLPDKANIGAFRRSLRGAQEQAKAIVAAIVAREGARAEAVAREASRTARTNLEYMIREAPELIAQVPGLALISD
notes: The PDB entries are of the wild-type parent; the mutant could not be crystallised; also called triple point mutant; source: E. coli BL21, synthetic gene (Genscript) in pET-20b, expressed and purified as the wild-type protein
stoichiometry N [5]: 4

B3: 10-mer palindrome (dsDNA)
DNA 1: ATGTATACAT
DNA 2: ATGTATACAT
binding result (Atu1419 [6]): binds
